These results are taken from FireProtDB (doi:10.1021/bi00158a021).

For the series the following is noted: Bos taurus, pH 8, GdnHCl, CD, cacodylate 50 mM, reversible: yes.

Regarding Phospholipase A2 F44I, P00593, for the setting “30 °C, structure 1BP2”, the “ddG of mutation (higher = less stable)” value is -2.7 kcal/mol, the denaturant m value worked out at 1.73 kcal/mol/M, the “denaturant midpoint (higher = more stable)” value (shortened to “denaturant midpoint”) was determined as 7 M and the unfolding free energy came to 12.2 kcal/mol.

In the case of Phospholipase A2 F44Y, P00593, where the note is “30 °C, structure 1BP2”, the “ddG of mutation (higher = less stable)” value was -1.5 kcal/mol, the denaturant m value turned out to be 1.58 kcal/mol/M, the “denaturant midpoint” value came out at 7 M and the unfolding free energy came to 11 kcal/mol.

For Phospholipase A2 F128A, P00593, under “25 °C, structure 1BP2”, the “ddG of mutation (higher = less stable)” value was 0.9 kcal/mol, the denaturant m value stood at 1.47 kcal/mol/M, the “denaturant midpoint” value stood at 5.9 M and the unfolding free energy is 8.6 kcal/mol.

Regarding Phospholipase A2 F128I, P00593, where the note is “30 °C, structure 1BP2”, the “ddG of mutation (higher = less stable)” value was -1.9 kcal/mol, the denaturant m value is 1.65 kcal/mol/M, the “denaturant midpoint” value came out at 6.9 M and the unfolding free energy worked out at 11.4 kcal/mol.

With Phospholipase A2 F128Y, P00593, under “30 °C, structure 1BP2”, the “ddG of mutation (higher = less stable)” value is -0.6 kcal/mol, the denaturant m value amounted to 1.53 kcal/mol/M, the “denaturant midpoint” value was 6.6 M and the unfolding free energy was 10.1 kcal/mol.

Take Phospholipase A2 wild type, P00593: for the setting “30 °C”, the denaturant m value turned out to be 1.47 kcal/mol/M, the “denaturant midpoint” value came out at 6.9 M and the unfolding free energy turned out to be 9.5 kcal/mol.
